According to patent US7537764:

What follows are binders tested against whole inactivated rabies virus (rabies virus) (assay: phage ELISA on coated whole inactivated rabies virus).

Binder	OD 492 nm [OD]
SC04-361 (scFv) scFv: EVQLVQSGAEVKKPGESLKISCKASGFSFSTYWIGWVRQMPGKGLEWMGIIYPADSDTRYSPSFQGQVTISADKSISTAYLQWSSLKASDTAMYYCARLRGPYYDFWNGYRETHDAFNVWGQGTMVTVSSGTGGSGGTGSGTGGSTDVVMTQSPDSLAVSLGERATINCKSSQNILDNSDNKNFLAWYQQKPGQPPKLLIYWASARESGVPDRFSGSGSGTDFTLTISSLQAEDVALYYCQQYYNTPITFGQGTRLEIKR	0.059
SC04-353 (scFv) scFv: EVQLVQSGGGVVQPGRSLRLSCAASGFTFSNYAMHWVRQAPGKGLEWVAVISYDGGNKYYADSVKGRFTMSRDNSKNTLYLQMNSLRAEDTAVYYCARDFWSGYSMVDSYYYYMDVWGKGTTVTVSSGTGGSGGTGSGTGGSTETTLTQSPGTLSLSPGERATLSCRASQSVSNTFLAWYQQKPGQAPRLLIYGASSRATGIPDRFSGSGSGTDFTLTISRLEPEDFAAYYCQQYGSSLTFGPGTKVDIKR	0.057
SC04-374 (scFv) scFv: QVTLKESGPTLVKPTQTLTLTCTFSGFSLSTSGVGVGWIRQPPGKALEWLAVIYWNDDKLYRPSLKSRLTITKDTSKNQVVLTMTKMDPVDTATYYCAHRHRYYDISGYYRLFSDAFDIWGQGTMVTVSSGTGGSGGTGSGTGGSTQSVVTQPPSVSGAPGQRVTISCTGSSSNIGAGYDVHWYQQLPGTAPKLLIYGNSNRPSGVPDRFSGSKSGTSASLAITGLQAEDEADYYCQSYDSSLSGSVFGGGTKLTVLG	0.056
